B1: S304 rIgG1 (antibody, V domains shown)
VH: EVQLVESGGGLVQPGGSLRLSCAASGFTFSSYDMHWVRQTTGKGLEWVSTIGTAGDTYYPDSVKGRFTISREDAKNSLYLQMNSLRAGDTAVYYCARGDSSGYYYYFDYWGQGTLLTVSS
VL: DIQMTQSPSSLSAAVGDRVTITCRASQSIGSYLNWYQQKPGKAPKLLIYAASSLQSGVPSRFSGSGSGTDFTLTISSLQPEDFAIYYCQQSYVSPTYTFGPGTKVDIK
B2: SARS-CoV-2 S308-v1 (antibody, V domains shown)
VH: QVQLVESGGGVVQPGRSLRLSCAASRFTFSSYGMHWVRQAPGKGLEWVAVIWHDGNNKHYGDSVKGRVTISRDNSKNTLYLQMTSLRAEDTAVYYCARAVTTFKGSGRARMRGMDVWGQGTTVTVSS
VL: DIQLTQSPSFLSASVGDRVTITCRASQGINTYLAWYQQKPGKAPKLLIYAASTLQSGVPSRFSGSGSGTEFTLTISSLQPEDFATYYCQHLDTYPFTFGPGTKVDIK
B3: SARS-CoV-2 S302 (antibody, V domains shown)
VH: QVQLVESGGGVVQPGRSLRLSCAASGFTFSSYGMHWVRQAPGKGLEWVAVISYDGSNKYYADSVKGRFTISRDNSKNTLYLQMNSLRAEDTAVYYCAKDISSGWDRVFDYWGQGTLVTVSS
VL: EILLTQSPGTLSLSPGERATLSCRTSQSVGSSYLAWYQQKPGQAPRLLIYAASSRAIGIPDRFSGSGSGTDFTLTISRLEPEDFAVYYCQQYGSSPWTFGQGTKVEIK
B4: SARS-CoV-2 S303-v1 (antibody, V domains shown)
VH: EVQLVESGGGLVKPGGSLRLSCAASGFTFLTYSMNWVRQTPGKRLQWVSAISGSGGATYYADSVKGRFTISRDNSKNTLYLQMNTVTADDTAIYFCARERDDIFPMGLNAFDIWGQGAMVIVSS
VL: DIQMTQSPSTLSASVGDRVTITCRASQSISNWLAWYQQKPGKAPKLLIYKASSLESGVPSRFSGSGSGTEFTLTISSLQPDDSATYYCQQYDTYSWTFGQGTKVEIK
B5: S303 rIgG1 (antibody, V domains shown)
VH: B4 VH
VL: B4 VL
B6: S315 rIgG1-LS (antibody, V domains shown)
VH: EVQLVESGGGLVQPGGSLRLSCAASGFTFSNYWMTWVRQAPGKGLEWVANIKQDGSEKYYVDSVKGRFTISRDNAKNSLYLQMNSLRAEDTAVYYCARDLWWNDQAHYYGMDVWGQGTTVTVSS
VL: SYELTQPPSVSVSPGQTARITCSGDAFPNQYAYWYQQKPGQAPVMLIYKDSERPSGIPERFFGSSSGTTVTLTIRGVQAEDEADYYCQSADSSGTVFGGGTKLTVL

Legend:
[1] = molecular target: SARS-CoV-2 Spike protein on pseudotyped virus (SARS-CoV-2 (Wuhan-Hu-1), UniProt P0DTC2 14-1273); assay: cell-based or functional assay
[2] = molecular target: SARS-CoV-1 RBD (Sino Biological) (SARS-CoV-1, UniProt P59594 306-527); assay: BLI (Octet), antibody on protein A sensors, RBD in solution
[3] = molecular target: SARS-CoV-2 S protein (strain BetaCoV/Wuhan-Hu-1/2019) expressed on transfected cells (SARS-CoV-2 (Wuhan-Hu-1), UniProt P0DTC2 14-1273); assay: flow cytometry, B cell supernatant on S-transfected ExpiCHO cells
[4] = molecular target: SARS-CoV-2 RBD with a Strep Tag II (SARS-CoV-2, UniProt P0DTC2 331-550); assay: BLI (Octet), RBD-Strep Tag II captured, antibody from B cell supernatant
[5] = molecular target: SARS-CoV-2 RBD (residues 331-550 of spike from BetaCoV/Wuhan-Hu-1/2019, produced in house in Expi-CHO cells) (SARS-CoV-2 (Wuhan-Hu-1), UniProt P0DTC2 331-550); assay: BLI (Octet), antibody on protein A sensors, RBD in solution
[6] = molecular target: His-tagged RBD of SARS-CoV-2 (SARS-CoV-2 (Wuhan-Hu-1), UniProt P0DTC2 331-550); assay: BLI (Octet), His-tagged RBD on anti-HIS sensors, antibody in solution

| Binder | binding result [2] | binding result [3] | further results |
| --- | --- | --- | --- |
| B1 | binds |  | IC50, neutralization of SARS-CoV-2pp on DBT-ACE2 cells [1]: ~17 µg/mL |
| B2 |  | binds |  |
| B3 |  | binds |  |
| B4 |  | binds | binding result [4]: binds |
| B5 | binds |  | binding result [5]: binds; binding result [6]: binds |
| B6 |  |  | IC50, neutralization of SARS-CoV-2pp on DBT-ACE2 cells (further assay) [1]: 25.1 µg/mL |

Source: patent US20250263467A1 (VIR BIOTECHNOLOGY, published 2025)
